The values that follow are results of earlier work, collected in paper PMC3585250.

In the data set the target is integrin αvβ3 (Homo sapiens) (UniProt P06756).
Chain of UniProt P06756 (P06756 31-1048, chain 1 of 2): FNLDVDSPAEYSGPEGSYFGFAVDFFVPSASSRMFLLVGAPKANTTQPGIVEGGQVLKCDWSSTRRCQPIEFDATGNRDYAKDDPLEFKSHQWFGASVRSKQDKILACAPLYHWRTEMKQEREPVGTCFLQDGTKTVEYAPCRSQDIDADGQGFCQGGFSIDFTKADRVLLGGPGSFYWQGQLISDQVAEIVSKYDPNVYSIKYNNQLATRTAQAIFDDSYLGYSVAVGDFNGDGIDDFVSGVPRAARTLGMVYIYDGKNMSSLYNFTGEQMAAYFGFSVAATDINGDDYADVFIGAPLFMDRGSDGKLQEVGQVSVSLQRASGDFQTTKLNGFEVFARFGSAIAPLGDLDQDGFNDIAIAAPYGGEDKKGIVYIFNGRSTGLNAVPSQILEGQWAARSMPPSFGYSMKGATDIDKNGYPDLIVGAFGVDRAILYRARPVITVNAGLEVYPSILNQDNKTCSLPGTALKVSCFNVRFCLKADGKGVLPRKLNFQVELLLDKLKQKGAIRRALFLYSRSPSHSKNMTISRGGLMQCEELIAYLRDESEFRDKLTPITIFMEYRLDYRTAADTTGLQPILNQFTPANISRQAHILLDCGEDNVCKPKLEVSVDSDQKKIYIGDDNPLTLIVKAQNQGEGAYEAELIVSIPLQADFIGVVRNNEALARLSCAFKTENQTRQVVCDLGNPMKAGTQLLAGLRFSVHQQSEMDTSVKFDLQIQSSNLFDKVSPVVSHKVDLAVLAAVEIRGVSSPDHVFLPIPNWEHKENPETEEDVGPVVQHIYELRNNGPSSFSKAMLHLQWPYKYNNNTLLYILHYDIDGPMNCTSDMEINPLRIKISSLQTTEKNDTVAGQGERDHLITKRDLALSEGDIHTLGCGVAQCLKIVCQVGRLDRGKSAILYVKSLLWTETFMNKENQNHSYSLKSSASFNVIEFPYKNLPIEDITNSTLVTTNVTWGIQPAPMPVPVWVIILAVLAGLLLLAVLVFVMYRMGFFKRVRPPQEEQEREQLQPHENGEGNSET
Chain of UniProt P06756 (P05106 27-788, chain 2 of 2, further chain): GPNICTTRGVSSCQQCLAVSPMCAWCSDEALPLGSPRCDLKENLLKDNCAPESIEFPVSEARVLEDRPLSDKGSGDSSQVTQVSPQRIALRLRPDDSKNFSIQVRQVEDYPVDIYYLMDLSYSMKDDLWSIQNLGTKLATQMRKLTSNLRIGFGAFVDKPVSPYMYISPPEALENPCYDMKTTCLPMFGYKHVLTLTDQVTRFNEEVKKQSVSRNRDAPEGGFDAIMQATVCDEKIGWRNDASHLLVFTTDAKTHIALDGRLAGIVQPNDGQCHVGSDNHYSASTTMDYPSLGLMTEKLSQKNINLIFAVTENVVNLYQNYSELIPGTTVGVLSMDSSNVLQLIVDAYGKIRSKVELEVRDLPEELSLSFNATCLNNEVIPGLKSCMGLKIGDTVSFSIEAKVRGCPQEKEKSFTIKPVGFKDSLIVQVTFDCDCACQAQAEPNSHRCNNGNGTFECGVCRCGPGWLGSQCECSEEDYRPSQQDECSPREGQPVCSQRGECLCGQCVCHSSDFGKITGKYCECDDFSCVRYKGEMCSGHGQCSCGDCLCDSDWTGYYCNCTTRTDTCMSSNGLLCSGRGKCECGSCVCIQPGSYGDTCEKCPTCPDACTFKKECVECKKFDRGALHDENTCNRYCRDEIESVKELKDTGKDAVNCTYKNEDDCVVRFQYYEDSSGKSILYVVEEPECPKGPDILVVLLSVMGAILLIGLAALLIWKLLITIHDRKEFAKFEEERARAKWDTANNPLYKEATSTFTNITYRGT

Regarding FGF1 (from UniProt P05230), the Kd was 1000 nM.
